Our source for the Kd values is publication PMC8860598.

Residue numbers refer to the chain shown, from its start. Where two headings read alike, the source gives them in different places.

Common to all, as to assay: EMSA
Background: In EMSA bound probe runs differently from free probe, usually more slowly.

The target of series [1] is T1, Sen1 HD wt (Saccharomyces cerevisiae, UniProt Q00416 1095-1905).
T1 sequence: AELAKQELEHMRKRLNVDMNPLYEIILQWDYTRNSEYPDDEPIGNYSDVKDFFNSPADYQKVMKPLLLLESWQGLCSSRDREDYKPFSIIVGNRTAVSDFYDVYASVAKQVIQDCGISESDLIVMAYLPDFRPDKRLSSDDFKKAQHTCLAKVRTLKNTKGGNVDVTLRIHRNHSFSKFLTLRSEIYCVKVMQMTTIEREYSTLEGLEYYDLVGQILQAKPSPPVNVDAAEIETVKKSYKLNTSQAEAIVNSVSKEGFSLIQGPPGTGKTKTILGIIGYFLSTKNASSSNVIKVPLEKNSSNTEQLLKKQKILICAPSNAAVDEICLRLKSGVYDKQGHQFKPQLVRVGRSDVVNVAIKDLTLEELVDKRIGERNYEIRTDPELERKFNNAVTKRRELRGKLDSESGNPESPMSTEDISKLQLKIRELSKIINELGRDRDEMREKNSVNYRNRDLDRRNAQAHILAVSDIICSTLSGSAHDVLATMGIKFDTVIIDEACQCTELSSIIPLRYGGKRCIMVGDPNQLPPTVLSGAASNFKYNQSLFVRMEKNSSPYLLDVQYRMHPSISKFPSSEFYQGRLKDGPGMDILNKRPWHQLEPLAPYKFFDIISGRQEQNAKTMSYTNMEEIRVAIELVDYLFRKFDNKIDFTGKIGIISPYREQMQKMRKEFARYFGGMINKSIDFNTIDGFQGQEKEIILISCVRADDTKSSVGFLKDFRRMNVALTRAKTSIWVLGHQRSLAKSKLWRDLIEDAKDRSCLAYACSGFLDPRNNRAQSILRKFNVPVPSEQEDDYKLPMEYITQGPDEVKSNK

The target in series [2] is T2, Sen1 HD T1623V (Saccharomyces cerevisiae, UniProt Q00416 1095-1905, T1623V).
T2 sequence: T1 sequence with T529V

The target of another series is T3, Sen1 HD T1623E (Saccharomyces cerevisiae, UniProt Q00416 1095-1905, T1623E).
T3 sequence: T1 sequence with T529E

Series [3] has as its target T1, Sen1 HD wt. This is another data set of the same source.
Series [4] addresses T2, Sen1 HD T1623V. This is another data set of the same source.

The Kd is the concentration at which binding is half-saturated. Higher therefore signals lower affinity. With UUCAUUUCAGACCAGCACCCACUCACUACAACUCACGACCAGGC (ssRNA) [DL3508 (called 40-mer RNA; printed sequence is 44 nt)], the Kd in the series with Sen1 HD wt [1] is 6.4 nM; with Sen1 HD T1623V [2], 8.1 nM; with Sen1 HD T1623E it was 100 nM; in the series with Sen1 HD wt [3], 13.1 nM; with Sen1 HD T1623V [4] it was 12.7 nM.
